Source: PMC4362373

Target: recombinant human IL-1RI Fc chimera (human) (UniProt P14778)
Test: ELISA

UniProt P14778, sequence (P14778 18-336, change not shown): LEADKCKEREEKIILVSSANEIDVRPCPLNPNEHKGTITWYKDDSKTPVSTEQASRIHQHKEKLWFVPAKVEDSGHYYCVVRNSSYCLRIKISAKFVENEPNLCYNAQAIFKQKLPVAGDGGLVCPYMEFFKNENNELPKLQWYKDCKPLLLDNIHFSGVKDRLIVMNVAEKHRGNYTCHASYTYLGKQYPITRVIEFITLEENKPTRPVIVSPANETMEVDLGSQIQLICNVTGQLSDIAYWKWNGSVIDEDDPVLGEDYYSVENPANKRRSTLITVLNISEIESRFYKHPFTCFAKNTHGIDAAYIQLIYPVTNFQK

fold reduction of affinity against wild-type IL-1β: 3500 fold
Substance: hIL-1b(D145K) (ligand)
